For assay [1], the target named is T1, Omicron BA.2.12.1 RBD (SARS-CoV-2, UniProt P0DTC2 333-528).
The target in assay [2] is T2, Omicron BA.2 RBD (SARS-CoV-2, UniProt P0DTC2 333-528).
Assay [3] has as its target T2, Omicron BA.2 RBD. The source holds these as a separate data set.
Assay [4] concerns the target T2, Omicron BA.2 RBD. The assay can be described thus: SPR, single injection of RBD over the IgG. In general terms: SPR reads the build-up and loss of mass on a sensor chip optically.
For assay [5], the target named is T3, Omicron BA.1 RBD (SARS-CoV-2, UniProt P0DTC2 333-528).
T3 construct: domain: RBD
The assay is described as follows: ELISA.

Assay [6] addresses T2, Omicron BA.2 RBD. This is another data set of the same source.
Assay [7] addresses T1, Omicron BA.2.12.1 RBD. The assay is described as follows: crystal structure of the ternary complex, 2.38 A.
The target of assay [8] is T2, Omicron BA.2 RBD. This is another data set of the same source.
For assay [9], the target named is T1, Omicron BA.2.12.1 RBD. This is another data set of the same source.
Assay [10] concerns the target T2, Omicron BA.2 RBD. The source holds these as a separate data set.
The target of assay [11] is T2, Omicron BA.2 RBD. This is another data set of the same source.
Assay [12] concerns the target T3, Omicron BA.1 RBD. The assay is described as follows: crystal structure of the complex.
The target in assay [13] is T2, Omicron BA.2 RBD. The source holds these as a separate data set.

We go through 10 molecules from US20250154231A1 (RQBIO COVID, published 2025).

Read-outs that look alike come from different tables or passages of the source.

B1: Omi31 (antibody, V domains shown)
VH: EVQLVQSGAEVKKPGSSVKVSCKASGGTFSSYGISWVRQAPGLGLEWMGGVIPILSAKHYAQRFQGRVTITADKSTGTAYMELSSLRSEDTAVYYCARDILHHDDLWGRFYYDGMDVWGQGTTVTVSS
VL: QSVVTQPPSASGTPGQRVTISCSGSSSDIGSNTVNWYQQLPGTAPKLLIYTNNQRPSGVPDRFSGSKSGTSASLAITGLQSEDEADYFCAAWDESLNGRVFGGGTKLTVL
Usually Kd stands for a measure of binding affinity in units of concentration. Low readings indicate tighter binding, high ones weaker binding. The term koff denotes the first-order rate constant of dissociation. By kon is commonly meant the second-order rate constant of association. The low end stands for slower complex formation, the high end for faster complex formation. Turning to B1, in the assay with Omicron BA.2.12.1 RBD [1], binding was put at a Kd of 4.1 nM, the T1/2 is 0.733 min, the off-rate (koff) stood at 0.016 s⁻¹ and the association rate constant (kon) turned out to be 3.8e+06 M⁻¹ s⁻¹. In the assay with Omicron BA.2 RBD [2], this molecule yielded an equilibrium dissociation constant (Kd) of 0.0032 nM, a T1/2 of 366 min, a koff of 3.1e-05 s⁻¹ and an association rate constant (kon) of 9.8e+06 M⁻¹ s⁻¹.

B2: Omi-32 Fab (Fab, V domains shown)
VH: EVQLVESGGGVVQPGRSLRLSCAASGFTFSNYGMHWVRQAPGKGLEWVAVYWYDGGNKFYADSVKGRFTISRDNSKNTLYLQMNSLRVEDTAVYYCARDTAPPDYWGQGTLVTVSS
VL: AIRMTQSPGTLSLSPGERATLSCRASQSISSSFLAWYQQKPGQAPRLLIYGASSRATGIPDRFSGSGSGTDFTLTISRLEPEDFAVYYCQQYGTSPRLTFGGGTKVDIK
Regarding B2, in the assay with Omicron BA.2 RBD [3], binding was put at a Kd of 5.9 nM, the T1/2 is 71 min, the koff stood at 0.00016 s⁻¹ and the on-rate constant (kon) is 27000 M⁻¹ s⁻¹.

B3: Omi36 (antibody, V domains shown)
VH: EVQLVESGGGVVQPGGSLRLSCAASGIIVSANYMTWVRQAPGKGLEWVSVIYPGGSTFYADSVKGRFTISRDNSKNTLYLQMNSLRVEDSAVYYCARDLELAGFNDYWGQGTLVTVSS
VL: DIVMTQSPGTLSLSPGERATLSCRTSQSVSSNYLAWYQQKPGQAPRLLIYGASSRATGIPDRFSGSGSGTDFTLTISRLEPEDFAVYYCQQFGSSPRYTFGQGTKVEIK
Consider B3, for which the binding result with Omicron BA.2 RBD [4] and with Omicron BA.1 RBD [5] was “binds” each time.

B4: Omi20 (antibody, V domains shown)
VH: EVQLVESGGGLVQPGGSLRLSCEASEITVSSNYMNWVRQAPGKGLEWVSVLFAGGTTYYADSVKGRFTISRDNSKNTLYLQMNTLRIEDTAIYYCARDLVAYGVDVWGQGTTVTVSS
VL: AIQMTQSPSFLSASVGDRVTITCRASQGISGDLAWYQQKPGKAPKLLIYAASTLQSGVPSRFSGSGSGTEFTLTISSLQPEDFATYYCQHLNSYPLTFGGGTKVEIK
In the assay with Omicron BA.2 RBD [6], B4 registered a dissociation constant (Kd) of 2.4 nM, a T1/2 of 5.6 min, a koff of 0.0021 s⁻¹ and a kon of 870000 M⁻¹ s⁻¹.

B5: Beta-27 Fab (Fab, V domains shown)
VH: EVQLLESGGGLVQPGGSLRLSCAASGLTVRSNYMNWVRQAPGKGLEWVSLIYSGGSTFYADSVKGRFTISRHDSKNTLYLQMNSLRAEDTAVYYCARDLVVYGMDVWGQGTTVTVSS
VL: DIQMTQSPGTLSLSPGERATLSCRASQSVSSSSLAWYQQKHGQAPRLLIYGTSSRATGIPDRFSGSGSGTDFTLTISGLEPEDFAVYYCQQYGSSPLFGGGTKVEIK
In the case of B5, the binding result with Omicron BA.2.12.1 RBD [7] was “binds”.

B6: Omi-42 Fab (Fab, V domains shown)
VH: EVQLLETGGGLVQPGRSLRLSCAASGFPFDDYAIHWVRLAPGKGLEWVSSISWDSGSIGYADSVKGRFTISRDNAKNSLYLQMNSLRAEDTALYYCAKGAFPGYSSGWYYGLDVWGQGATVTVSS
VL: QSVVTQPPSASGSLGQSVTISCTGTSSDVGGYNYVSWYQQHPGKAPKLMIFEVSKRPSGVPDRFSGSKSGNTASLTVSGLQAEDEADYYCSSYAGNKGVFGGGTKLTVL
In the assay with Omicron BA.2 RBD [8], B6 yielded an equilibrium dissociation constant (Kd) of 0.99 nM, a T1/2 of 131 min, a dissociation rate constant (koff) of 8.8e-05 s⁻¹ and a kon of 89000 M⁻¹ s⁻¹.

B7: Omi06 (antibody, V domains shown)
VH: EVQLLESGPGLVKPSETLSLTCTVSGGSISRYSWSWIRQPAGRGLEWIGRMYSSGGTNYNPSLESRVTMSLDTSKKQFSLKLSSVTAADTAVYYCAAASIDQVWGTYRDAFDIWGQGTMVTVSS
VL: AIRMTQSPSSLAASVGDRVTISCRAGQSISSFLHWYQQKVGKAPKLLIYDASSLQSGVPSRFSGSGSGTDFTLTISSLQPEDFAAYYCQQSYENPLTFGGGTKVDIK
For the molecule B7, in the assay with Omicron BA.2.12.1 RBD [9], the Kd is 19 nM. In the assay with Omicron BA.2 RBD [10], the Kd came out at 1.3 nM, the T1/2 was 0.983 min, the koff was found to be 0.012 s⁻¹ and the kon amounted to 9e+06 M⁻¹ s⁻¹.

B8: Fab Beta-54 (Fab, V domains shown)
VH: QVQLQESGPGLVKPSETLSLTCTVFGGSITSSNHYWVWIRQPPGKGLEWIGSMYYSGSTAYNPSLTNRVTISVDTSKNQFSLKLSSVTAADTAVYYCARQIGPKRPSQVADWFDPWGQGTLVTVSS
VL: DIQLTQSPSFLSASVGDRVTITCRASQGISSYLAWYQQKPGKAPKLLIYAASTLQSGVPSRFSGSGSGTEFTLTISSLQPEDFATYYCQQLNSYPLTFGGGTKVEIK
For B8, in the assay with Omicron BA.2 RBD [11], the Kd worked out at 44 nM, the T1/2 turned out to be 2.3 min, the koff amounted to 0.005 s⁻¹ and the association rate constant (kon) worked out at 110000 M⁻¹ s⁻¹.

B9: Omi-9 Fab (Fab, V domains shown)
VH: QVQLVESGGGVVQPGRSLRLSCAASGFTFRTYAVHWVRQAPGKGPEWVAVISYDGSNKYYADSVKGRFTLSRDTSKNTLYLQMNSLRAEDTAVYYCASRGDTVTTGDAFDIWGQGTMVTVSS
VL: SYELTQPPSVSVSPGQTARITCSGDALPKQYTYWYQQKPGQPPVLVIYKDSERPSGIPERFSGSSSGTTVTLTISGVQAEDEADYYCQSTDSSATYPGNVVFGGGTKLTVL
Regarding B9, in the assay with Omicron BA.1 RBD [12], the binding result is “binds”.

B10: Omi03 (antibody, V domains shown)
VH: EVQLVESGGGLIQPGGSLRLSCAASEIIVSRNYMSWVRQAPGKGLEWVSVIYSGGSTFYADSVKGRFTISRDNSKNTLYLQMNSLRAEDTAVYYCARDLDVVGGTDYWGQGTLVTVSS
VL: not shown
In the assay with Omicron BA.2 RBD [13], B10 gave an equilibrium dissociation constant (Kd) of 4.4 nM and a T1/2 of 2.9 min.
